B1: Voltage-dependent calcium channel gamma-2 subunit (Homo sapiens), Q9Y698 (parent)
chain: MGLFDRGVQMLLTTVGAFAAFSLMTIAVGTDYWLYSRGVCKTKSVSENETSKKNEEVMTHSGLWRTCCLEGNFKGLCKQIDHFPEDADYEADTAEYFLRAVRASSIFPILSVILLFMGGLCIAASEFYKTRHNIILSAGIFFVSAGLSNIIGIIVYISANAGDPSKSDSKKNSYSYGWSFYFGALSFIIAEMVGVLAVHMFIDRHKQLRATARATDYLQASAITRIPSYRYRYQRRSRSSSRSTEPSHSRDASPVGIKGFNTLPSTEISMYTLSRDPLKAATTPTATYNSDRDNSFLQVHNCIQKENKDSLHSNTANRRTTPV

Variants of: B1
Conditions: with gria1_rat Gria1, P19490
Sequence of gria1_rat Gria1, P19490 (P19490 whole entry): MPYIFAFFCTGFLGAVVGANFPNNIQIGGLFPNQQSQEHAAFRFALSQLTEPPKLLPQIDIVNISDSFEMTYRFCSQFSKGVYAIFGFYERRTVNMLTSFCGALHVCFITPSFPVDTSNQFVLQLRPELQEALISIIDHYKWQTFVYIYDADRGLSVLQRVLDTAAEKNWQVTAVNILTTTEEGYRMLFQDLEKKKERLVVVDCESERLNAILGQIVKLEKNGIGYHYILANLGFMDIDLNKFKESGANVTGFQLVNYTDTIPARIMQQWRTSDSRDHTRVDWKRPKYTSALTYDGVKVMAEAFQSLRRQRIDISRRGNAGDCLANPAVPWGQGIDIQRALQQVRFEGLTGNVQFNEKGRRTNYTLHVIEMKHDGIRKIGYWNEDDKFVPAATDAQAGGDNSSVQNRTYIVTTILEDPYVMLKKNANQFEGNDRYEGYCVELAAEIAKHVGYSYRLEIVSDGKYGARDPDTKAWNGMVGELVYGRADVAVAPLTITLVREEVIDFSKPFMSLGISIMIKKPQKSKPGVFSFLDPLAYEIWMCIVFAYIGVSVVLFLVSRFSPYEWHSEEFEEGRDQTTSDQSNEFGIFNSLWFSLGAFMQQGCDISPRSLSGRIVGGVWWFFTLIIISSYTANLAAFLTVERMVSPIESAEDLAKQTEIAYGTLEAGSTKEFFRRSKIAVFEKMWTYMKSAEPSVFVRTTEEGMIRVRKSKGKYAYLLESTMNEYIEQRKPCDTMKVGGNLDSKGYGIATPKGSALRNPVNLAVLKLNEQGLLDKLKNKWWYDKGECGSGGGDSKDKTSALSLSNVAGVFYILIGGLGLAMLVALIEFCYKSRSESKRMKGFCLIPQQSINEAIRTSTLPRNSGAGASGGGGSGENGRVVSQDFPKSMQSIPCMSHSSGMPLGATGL

Row | effect of a mutation on the interaction | Variant
1 | decreasing interaction | MGLFDRGVQMLLTTVGAFAAFSLMTIAVGTDYWLYSRGVCKTKSVSENETSKKNEEVMTHSGLWRTCCLEGNFKGLCKQIDHFPEDADYEADTAEYFLRAVRASSIFPILSVILLFMGGLCIAASEFYKTRHNIILSAGIFFVSAGLSNIIGIIVYISANAGDPSKSDSKKNSYSYGWSFYFGALSFIIAEMVGVLAVHMFIDRHKQLRATARATDYLQASAITRIPSYRYRYQRRSRSSSRSTEPSHSRDASPVGIKGFNTLPSTEISMYTLSRDPLKAATTPTATYNSDRDNSFLQVHNSIQKENKDSLHSNTANRRTTPV [C302S]

From IntAct's records for PubMed 19805317
